Patent publication US12102661B2

molecular target: Angioensin Converting Enzyme (ACE)

| Substance | Inhibitory activity of hydrolysate (%) |
| --- | --- |
| AS1.398 neutral protease hydrolysate of ginkgo protein (pool or library) | 87.4% |
| Alcalase hydrolysate of ginkgo protein (pool or library) | 80.4% |
| papain hydrolysate of ginkgo protein (pool or library) | 73.2% |
| trypsin hydrolysate of ginkgo protein (pool or library) | 61.3% |

molecular target: Angioensin Converting Enzyme (ACE); remark: another data set of the same source

| Substance | ACE inhibitory activity (%) |
| --- | --- |
| Over 10 kDa concentrated solution of ginkgo protein hydrolysate (pool or library) | 56.2% |
| Ultrafiltrate below 3 kDa of ginkgo protein hydrolysate (pool or library) | 85.3% |
| Ultrafiltrate of 3-10 kDa of ginkgo protein hydrolysate (pool or library) | 72% |
